Results published in patent publication US11278600B2, “Human alpha-galactosidase variants” (Codexis, Inc., priority 2014, dated 2022).
Substitutions are numbered along the chain they refer to.

Key:
Format in all cases: biochemical
[1] = HTP-analysis of supernatants pretreated with acid (MUGal hydrolysis); conditions: activity of the variant/activity of Rd7BB (SEQ ID NO: 44); challenge at pH 3.5
How it was run: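 Yeast INVSc1 supernatant, GLA variants; acid challenge: McIlvaine pH 3.3-4.3, 37° C., 1-3 h. Assay: MUGal in McIlvaine pH 4.8 plus citrate pH 4.3, 37° C., 30-180 min, Na2CO3 stop, Ex 355/Em 448 nm.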

[2] = HTP-analysis of yeast culture supernatants, no challenge (MUGal hydrolysis); conditions: activity of the variant/activity of Rd7BB (SEQ ID NO: 44)
How it was run: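 Activity read as 4-methylumbelliferyl α-D-galactopyranoside hydrolysis: fluorescence (355/448 nm) after sodium carbonate stop, following 30-180 min at 37° C with 2 mM MUGal stock at pH 4.6–4.8. Enzyme source is unchallenged culture supernatant of INVSc1 yeast expressing GLA variants, grown 66-84 h at 30° C.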

[3] = HTP-analysis of supernatants pretreated with base (MUGal hydrolysis); conditions: activity of the variant/activity of Rd7BB (SEQ ID NO: 44); challenge at pH 7.5
How it was run: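 GLA variants secreted from yeast INVSc1; culture supernatants pre-incubated with McIlvaine buffer pH 7.0–8.2 or 200 mM bicarbonate pH 9.1–9.7 at 37° C. for 1–18 h. Residual activity: MUGal (4 mM stock) hydrolysis at pH 4.3–4.8, 37° C., 30–180 min, carbonate quench; fluorescence Ex 355/Em 448 nm.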

B1: 692 (protein)
chain: LDNGLARTPTMGWLHWERFMCNLDCQEEPDSCISEKLFMEMAERMVTEGWKDAGYEYLCIDDCWMAPQRDSEGRLQADPQRFPHGIRQLANHVHSKGLKLGIYADVGNKTCAGFPGSFGYYDIDAQTFADWGVDLLKFDGCYCDSLENLADGYKHMSLALNRTGRPIVYSCEWPLYMWPFQKPNYTEIRQYCNHWRNFADIDDSWASIKSILDWTSRNQERIVDVAGPGGWNDPDMLVIGNFGLSWDQQVTQMALLAIMAAPLFMSNDLRAISPQAKALLQDKDVIAINQDPLGKQGYQLRKGDNFEVWERPLSGDAWAVAIINRQEIGGPRSYTIPVASLGKGVACNPACFITQLLPVKRQLGFYNWTSRLKSHINPTGTVLLQLENTMQTSLKDLL
modifications: Synthetic Polypeptide sequence of Variant No. 692 of mature Human GLA
- Relative Activity of GLA Variants After Challenge at pH 3.5 [1]: − (<0.5 relative activity to Rd7BB (SEQ ID NO: 44))
- Relative Activity of GLA Variants After No Challenge (NC) [2]: − (<0.5 relative activity to Rd7BB (SEQ ID NO: 44))
- Relative Activity of GLA Variants After Challenge at pH 7.5 [3]: − (<0.5 relative activity to Rd7BB (SEQ ID NO: 44))

B2: 642 (protein)
chain: B1 chain with T10P, E43D, L256W, A261G, N305L, W368A
modifications: Synthetic Polypeptide sequence of Variant No. 642 of mature Human GLA
- Relative Activity of GLA Variants After Challenge at pH 3.5 [1]: + (>0.5 to 1.5 relative activity over Rd7BB (SEQ ID NO: 44))
- Relative Activity of GLA Variants After No Challenge (NC) [2]: + (>0.5 to 1.5 relative activity over Rd7BB (SEQ ID NO: 44))
- Relative Activity of GLA Variants After Challenge at pH 7.5 [3]: + (>0.5 to 1.5 relative activity over Rd7BB (SEQ ID NO: 44))

B3: 644 (protein)
chain: B1 chain with L237P, L256W
modifications: Synthetic Polypeptide sequence of Variant No. 644 of mature Human GLA
- Relative Activity of GLA Variants After Challenge at pH 3.5 [1]: − (<0.5 relative activity to Rd7BB (SEQ ID NO: 44))
- Relative Activity of GLA Variants After No Challenge (NC) [2]: − (<0.5 relative activity to Rd7BB (SEQ ID NO: 44))
- Relative Activity of GLA Variants After Challenge at pH 7.5 [3]: − (<0.5 relative activity to Rd7BB (SEQ ID NO: 44))

B4: 693 (protein)
chain: B1 chain with L256W, W368A
modifications: Synthetic Polypeptide sequence of Variant No. 693 of mature Human GLA
- Relative Activity of GLA Variants After Challenge at pH 3.5 [1]: + (>0.5 to 1.5 relative activity over Rd7BB (SEQ ID NO: 44))
- Relative Activity of GLA Variants After No Challenge (NC) [2]: + (>0.5 to 1.5 relative activity over Rd7BB (SEQ ID NO: 44))
- Relative Activity of GLA Variants After Challenge at pH 7.5 [3]: + (>0.5 to 1.5 relative activity over Rd7BB (SEQ ID NO: 44))

B5: 643 (protein)
chain: B1 chain with T10P, L256W, R325S
modifications: Synthetic Polypeptide sequence of Variant No. 643 of mature Human GLA
- Relative Activity of GLA Variants After Challenge at pH 3.5 [1]: − (<0.5 relative activity to Rd7BB (SEQ ID NO: 44))
- Relative Activity of GLA Variants After No Challenge (NC) [2]: + (>0.5 to 1.5 relative activity over Rd7BB (SEQ ID NO: 44))
- Relative Activity of GLA Variants After Challenge at pH 7.5 [3]: + (>0.5 to 1.5 relative activity over Rd7BB (SEQ ID NO: 44))

B6: 645 (protein)
chain: B1 chain with P174S, L256W
modifications: Synthetic Polypeptide sequence of Variant No. 645 of mature Human GLA
- Relative Activity of GLA Variants After Challenge at pH 3.5 [1]: + (>0.5 to 1.5 relative activity over Rd7BB (SEQ ID NO: 44))
- Relative Activity of GLA Variants After No Challenge (NC) [2]: + (>0.5 to 1.5 relative activity over Rd7BB (SEQ ID NO: 44))
- Relative Activity of GLA Variants After Challenge at pH 7.5 [3]: − (<0.5 relative activity to Rd7BB (SEQ ID NO: 44))
